Results on 6 molecules are retold here after PMC3024409, “Protein-Protein Interactions within Late Pre-40S Ribosomes” (PLoS ONE, 2011).

The chains are these.
B1: (MBP-)Dim1 (enzyme, S. cerevisiae, UniProt P41819 1-318, looked up)
chain: MGKAAKKKYSGATSSKQVSAEKHLSSVFKFNTDLGQHILKNPLVAQGIVDKAQIRPSDVVLEVGPGTGNLTVRILEQAKNVVAVEMDPRMAAELTKRVRGTPVEKKLEIMLGDFMKTELPYFDICISNTPYQISSPLVFKLINQPRPPRVSILMFQREFALRLLARPGDSLYCRLSANVQMWANVTHIMKVGKNNFRPPPQVESSVVRLEIKNPRPQVDYNEWDGLLRIVFVRKNRTISAGFKSTTVMDILEKNYKTFLAMNNEMVDDTKGSMHDVVKEKIDTVLKETDLGDKRAGKCDQNDFLRLLYAFHQVGIHFS
notes: Dim1, S. cerevisiae; gene amplified from genomic DNA with primers from the start codon to the stop codon, cloned between SfoI and HindIII of pSV272; source: E. coli Rosetta, purified (Ni-NTA, MonoS, gel filtration; no TEV protease); not shown: His6-MBP, N-terminal, kept
B2: Dim1 (untagged) (enzyme, S. cerevisiae, UniProt P41819 1-318, looked up)
chain: B1 chain
notes: Dim1, S. cerevisiae; gene amplified from genomic DNA with primers from the start codon to the stop codon, cloned between SfoI and HindIII of pSV272; also called methylase Dim1; source: E. coli Rosetta, purified (Ni-NTA, TEV cleavage, MonoS, gel filtration); not shown: His6-MBP, N-terminal, cleaved
B3: Ltv1 (untagged) (natural protein, S. cerevisiae, UniProt P34078 1-463, looked up)
chain: MSKKFSSKNSQRYVVVHRPHDDPSFYDTDASAHVLVPVSNPNKTSPEADLRKKDVSSTKPKGRRAHVGEAALYGINFDDSEYDYTQHLKPIGLDPENSIFIASKGNEQKVEKKNIEDLFIEPKYRRDEIEKDDALPVFQRGMAKPEYLLHQQDTTDEIRGFKPDMNPALREVLEALEDEAYVVNDDVVVEDISKKTQLQGDNYGEEEKEDDIFAQLLGSGEAKDEDEFEDEFDEWDIDNVENFEDENYVKEMAQFDNIENLEDLENIDYQADVRRFQKDNSILEKHNSDDEFSNAGLDSVNPSEEEDVLGELPSIQDKSKTGKKKRKSRQKKGAMSDVSGFSMSSSAIARTETMTVLDDQYDQIINGYENYEEELEEDEEQNYQPFDMSAERSDFESMLDDFLDNYELESGGRKLAKKDKEIERLKEAADEVSKGKLSQRRNRERQEKKKLEKVTNTLSSLKF
notes: Ltv1, S. cerevisiae; gene amplified from genomic DNA with primers from the start codon to the stop codon, cloned between SfoI and BamHI of pSV272; also called export adaptor Ltv1; source: E. coli Rosetta, purified (Ni-NTA, TEV cleavage, MonoQ, gel filtration); not shown: His6-MBP, N-terminal, cleaved
B4: (MBP-)Ltv1 (natural protein, S. cerevisiae, UniProt P34078 1-463, looked up)
chain: B3 chain
notes: Ltv1, S. cerevisiae; gene amplified from genomic DNA with primers from the start codon to the stop codon, cloned between SfoI and BamHI of pSV272; source: E. coli Rosetta, purified (Ni-NTA, MonoQ, gel filtration; TEV protease omitted); not shown: His6-MBP, N-terminal, kept
B5: Rio2 (untagged) (enzyme, S. cerevisiae, UniProt P40160 1-425, looked up)
chain: MKLDTSHMRYLTTDDFRVLQAVEQGSRSHEVVPTPLIHQISGMRSQSGTNRAISDLAKLSLISKMRNVKYDGYRLTYNGIDYLALKTMLNRDTVYSVGNTIGVGKESDIYKVSDKNGNPRVMKIHRLGRTSFHSVRNNRDYLKKSNQGANWMHLSRLAANKEYQFMSMLYSKGFKVPEPFDNSRHIVVMELIEGYPMRRLRKHKNIPKLYSDLMCFIVDLANSGLIHCDFNEFNIMIKDKLEDENDCGFVVIDFPQCISIQHQDADYYFQRDVDCIRRFFKKKLKYEPKPDSSMLDTEGFGDGYKYAYPDFKRDVKRTDNLDELVQASGFSKKHPGDRGLETAVESMRNAVYNSDDDMSNDEAEEENGEGDYSEEDEYYDSELDNESSEDDSEDAQEEENERIIEALSSGVENLKMDKLGNYILE
notes: Rio2, S. cerevisiae; Cloning into the NheI site of pET23a may leave a few vector residues before the first methionine; also called kinase Rio2; protein kinase Rio2; source: E. coli Rosetta, purified (Hi-Trap Q, MonoQ, gel filtration)
B6: (MBP-)Rps15 (natural protein, S. cerevisiae, UniProt Q01855 2-142, looked up)
chain: SQAVNAKKRVFKTHSYRGVDLEKLLEMSTEDFVKLAPARVRRRFARGMTSKPAGFMKKLRAAKLAAPENEKPAPVRTHMRNMIIVPEMIGSVVGIYNGKAFNQVEIRPEMLGHYLGEFSITYTPVRHGRAGATTSRFIPLK
notes: ribosomal protein Rps15, S. cerevisiae; gene amplified from genomic DNA, cloned between SfoI and HindIII of pSV272; source: E. coli Rosetta, purified (Ni-NTA, MonoQ, gel filtration); not shown: His6-MBP, N-terminal, kept

Common to all, as to test: pull-down; 3 µM MBP-tagged bait and 5 µM untagged prey in 50 mM HEPES pH 7.5, 150 mM KCl; 10 min at room temperature, 1 h at 4°C with amylose resin; washed, eluted with 20 mM maltose; SDS-PAGE, Coomassie
What all share (details): both partners purified

The target in the assay “Rio2 (untagged)” is B5.
A further assay has as its target T1, (MBP-)Rio2 (S. cerevisiae, UniProt P40160 1-425).
T1 construct: Rio2, S. cerevisiae; gene amplified from genomic DNA with primers from the start codon to the stop codon, cloned between SfoI and BamHI of pSV272; 93 kDa as printed; source: E. coli Rosetta, purified (Ni column, MonoQ, gel filtration); not shown: His6-MBP, N-terminal, kept
T1 sequence (looked up): B5 chain

The target of a further assay is T2, (MBP-)Enp1 (S. cerevisiae, UniProt P38333 1-483).
T2 construct: Enp1, S. cerevisiae; gene amplified from genomic DNA, cloned between SfoI and BamHI of pSV272; source: E. coli Rosetta, purified (Ni-NTA, MonoQ, gel filtration); not shown: His6-MBP, N-terminal, kept
T2 sequence (looked up): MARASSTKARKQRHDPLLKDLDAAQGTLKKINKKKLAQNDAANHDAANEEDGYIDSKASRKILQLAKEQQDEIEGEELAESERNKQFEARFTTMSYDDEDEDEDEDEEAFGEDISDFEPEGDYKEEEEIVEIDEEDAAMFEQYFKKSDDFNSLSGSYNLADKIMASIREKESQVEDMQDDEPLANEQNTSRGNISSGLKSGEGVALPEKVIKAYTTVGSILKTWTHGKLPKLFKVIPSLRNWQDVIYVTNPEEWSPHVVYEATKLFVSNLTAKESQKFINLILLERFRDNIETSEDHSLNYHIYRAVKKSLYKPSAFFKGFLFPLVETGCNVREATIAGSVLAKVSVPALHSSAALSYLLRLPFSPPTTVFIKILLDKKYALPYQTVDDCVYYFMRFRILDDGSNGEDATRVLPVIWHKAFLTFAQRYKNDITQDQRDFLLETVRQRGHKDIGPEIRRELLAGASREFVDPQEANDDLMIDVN

In a further assay the target is T3, Enp1 (untagged) (S. cerevisiae, UniProt P38333 1-483).
T3 construct: Enp1, S. cerevisiae; gene amplified from genomic DNA, cloned between SfoI and BamHI of pSV272; source: E. coli Rosetta, purified (Ni-NTA, TEV cleavage, MonoQ, gel filtration); not shown: His6-MBP, N-terminal, cleaved
T3 sequence (looked up): T2 sequence (looked up)

The target of a further assay is T4, (MBP-)Tsr1 (S. cerevisiae, UniProt Q07381 1-788).
T4 construct: Tsr1, S. cerevisiae; gene amplified from genomic DNA with primers from the start codon to the stop codon, cloned between SfoI and HindIII of pSV272; source: E. coli Rosetta, purified (Ni-NTA, MonoQ, gel filtration; TEV protease omitted); not shown: His6-MBP, N-terminal, kept
T4 sequence (looked up): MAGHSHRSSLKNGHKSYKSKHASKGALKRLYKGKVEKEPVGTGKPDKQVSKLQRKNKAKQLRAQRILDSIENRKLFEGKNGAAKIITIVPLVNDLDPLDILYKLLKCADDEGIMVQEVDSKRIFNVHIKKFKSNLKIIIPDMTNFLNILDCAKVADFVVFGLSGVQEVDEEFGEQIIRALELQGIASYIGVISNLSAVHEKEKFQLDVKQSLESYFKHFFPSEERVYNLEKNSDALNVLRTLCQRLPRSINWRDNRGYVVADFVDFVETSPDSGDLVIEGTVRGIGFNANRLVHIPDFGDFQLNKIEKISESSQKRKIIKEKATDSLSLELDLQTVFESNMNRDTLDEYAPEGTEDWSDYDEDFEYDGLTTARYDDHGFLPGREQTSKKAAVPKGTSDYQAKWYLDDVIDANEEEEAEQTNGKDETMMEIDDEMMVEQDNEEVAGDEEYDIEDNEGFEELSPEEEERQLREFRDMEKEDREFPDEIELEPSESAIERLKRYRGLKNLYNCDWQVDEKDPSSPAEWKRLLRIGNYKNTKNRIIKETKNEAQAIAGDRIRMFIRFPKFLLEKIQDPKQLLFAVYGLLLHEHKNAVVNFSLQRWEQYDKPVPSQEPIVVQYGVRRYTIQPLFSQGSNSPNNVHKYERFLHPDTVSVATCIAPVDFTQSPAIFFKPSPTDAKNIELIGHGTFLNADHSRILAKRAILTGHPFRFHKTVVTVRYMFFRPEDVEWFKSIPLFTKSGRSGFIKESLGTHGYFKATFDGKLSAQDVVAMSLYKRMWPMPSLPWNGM

The target of the assay “Ltv1 (untagged)” is B3.

With B1, the binding result in the assay with Rio2 (untagged) is recorded as “binds”.

Take B2: in the assay with (MBP-)Rio2, the binding result is “binds”.

With B3, the binding result with (MBP-)Enp1 was “binds”.

For the molecule B4, the binding result in the assay with Enp1 (untagged) was “binds”.

Turning to B5, the binding result in the assay with (MBP-)Tsr1 is listed as “binds”.

As for B6, the binding result with Ltv1 (untagged) and with Rio2 (untagged) was “binds” throughout.
